From patent US20250066422A1 come the findings set out here.

Some targets named below: HLA-DR1 (human); HLA-DR2 (human); HLA-DR4 (human); HLA-DR5 (human); HLA-DR7 (human).
Assay in all cases: ProImmune REVEAL MHC-peptide binding assay

Take TFSYVDPVITSISPKYG (peptide, from a related filing) [MET-005]: the Relative Binding Score (% of positive control) with HLA-DR1 (human) turned out to be 0.87; with HLA-DR2 (human), 0.28; with HLA-DR4 (human) it was 5.89; with HLA-DR5 (human), 0.12; in the assay with HLA-DR7 (human), 3.69.
For the molecule TLGEFLKLDRERAKN (peptide, from a related filing) [BIR-002], the Relative Binding Score (% of positive control) with HLA-DR1 (human) worked out at 40.1; with HLA-DR2 (human), 0.05; with HLA-DR4 (human), 6.12; in the assay with HLA-DR5 (human), 104; with HLA-DR7 (human), 0.27.
